Results taken from patent publication US20140322332A1 (GENUS ONCOLOGY, published 2014).
Positions of bridges follow the written chain, without caps; N, C: chain ends. Non-standard residues stand in square brackets, D forms with d.

Tests used:
[1] = target: T1, human MUC1 in human carcinoma cells (human, UniProt P15941 1097-1255); test: cell-based or functional assay
T1 sequence: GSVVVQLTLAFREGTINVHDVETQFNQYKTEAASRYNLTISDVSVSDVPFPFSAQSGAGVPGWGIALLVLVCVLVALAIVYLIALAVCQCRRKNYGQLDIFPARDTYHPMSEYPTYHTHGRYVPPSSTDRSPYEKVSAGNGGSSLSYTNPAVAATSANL

[2] = target: human MUC1 in human carcinoma cells (human) (UniProt P15941); test: cell-based or functional assay
[3] = target: dopamine D1 receptor (Homo sapiens (Human)) (UniProt P21728); test: receptor binding screen, inhibition of radioligand binding
dopamine D1 receptor (Homo sapiens (Human)), sequence (P21728 whole entry, form in doubt): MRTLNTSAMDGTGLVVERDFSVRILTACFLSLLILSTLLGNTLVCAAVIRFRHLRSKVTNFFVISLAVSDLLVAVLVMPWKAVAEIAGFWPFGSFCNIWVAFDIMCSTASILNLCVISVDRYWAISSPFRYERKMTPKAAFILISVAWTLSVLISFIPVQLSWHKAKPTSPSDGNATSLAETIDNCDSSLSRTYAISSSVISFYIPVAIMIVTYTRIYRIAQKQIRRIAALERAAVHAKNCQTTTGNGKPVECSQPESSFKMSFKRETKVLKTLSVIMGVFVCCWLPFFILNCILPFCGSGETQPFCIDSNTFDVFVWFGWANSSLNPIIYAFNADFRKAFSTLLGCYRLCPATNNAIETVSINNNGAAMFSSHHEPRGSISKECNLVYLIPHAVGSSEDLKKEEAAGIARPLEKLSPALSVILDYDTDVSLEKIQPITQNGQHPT

## GO-203 (peptide)
[1]
  % inhibition of proliferation, H1975 lung cancer cells, 5 µM peptide daily, viable cells by trypan blue: 75.8%
  % inhibition of proliferation, ZR-75-1 breast cancer cells, 5 µM peptide daily, viable cells by trypan blue: 44%

B1: GO-203-2 (peptide)
peptide: Ac-[dR][dR][dR][dR][dR][dR][dR][dR][dR][dC][dQ][dC][dR][dR][dK][dN]-NH2
modifications: cysteine pairing not given here
[2]
  % Inhibition of cell viability, A549 NSCLC, 5 µM: 75.4%
  % Inhibition of cell viability, H1975 NSCLC, 5 µM: 52.9%
  % Inhibition of cell viability, MCF-7 breast carcinoma, 5 µM: 91.4%
  % Inhibition of cell viability, ZR-75-1 breast carcinoma, 5 µM: 50.7%
  % inhibition of proliferation, H1975 lung cancer cells, 5 µM peptide daily, viable cells by trypan blue: 63.6%
  % inhibition of proliferation, ZR-75-1 breast cancer cells, 5 µM peptide daily, viable cells by trypan blue: 65.5%
  IC50 of inhibition of proliferation of a variety of human carcinoma cell lines in vitro: 2 to 5 µM

B2: GO-203-2c (peptide)
peptide: Ac-[dR][dR][dR][dR][dR][dR][dR][dR][dR][dC][dQ][dC][dR][dR][dK][dN]-NH2
modifications: disulfide 10-12
SMILES: CC(=O)N[C@H](CCCNC(=N)N)C(=O)N[C@H](CCCNC(=N)N)C(=O)N[C@H](CCCNC(=N)N)C(=O)N[C@H](CCCNC(=N)N)C(=O)N[C@H](CCCNC(=N)N)C(=O)N[C@H](CCCNC(=N)N)C(=O)N[C@H](CCCNC(=N)N)C(=O)N[C@H](CCCNC(=N)N)C(=O)N[C@H](CCCNC(=N)N)C(=O)N[C@@H]1CSSC[C@H](C(=O)N[C@H](CCCNC(=N)N)C(=O)N[C@H](CCCNC(=N)N)C(=O)N[C@H](CCCCN)C(=O)N[C@H](CC(N)=O)C(N)=O)NC(=O)[C@@H](CCC(N)=O)NC1=O
[1]
  IC50 of inhibition of proliferation of a variety of human carcinoma cell lines in vitro: 2 to 5 µM
[3]
  IC50: 10.5 µM
